This is an account of results in US20080230399A1, “Fructosylamine Oxidase” (priority 2003, published 2008).

This experiment can be described thus: Determination of enzymatic activity (POD/Phenol/4A.A. method). The settings on record: substrate 10 mM, PPb pH 7.0 50 mM, absorbance at 505 nm; recombinant FAO produced by Escherichia coli compared with enzyme produced by wild-type Pichia sp. N1-1. Format: biochemical. The protocol: Reactivity of the purified enzyme prepared in Example 5 to fructosyl valine, N′-fructosyl lysine, fructosyl glycine, fructosyl alanine, fructosyl leucine, fructosyl phenylalanine, glucose and sarcosine was examined. The measurement was conducted using a solution containing a substrate (10 mM), PPb (pH 7.0, 50 mM), phenol (1.5 mM), 4-aminoantipyrine (1.5 mM) and peroxidase (2 U/ml), and changes in the absorbance at 505 nm were measured according to the POD/Phenol/4A.A. method. […] N1-1 strain of wild type.

B1: recombinant FAO: Fructosylamine oxidase derived from Pichia sp. N1-1 (SEQ ID NO: 1), recombinantly produced in Escherichia coli DH5α/pTN1 and purified (protein, listed as Pichia sp.)
chain: MESIIIVGAGTFGLSTALQLARDGYKNIKCFDKFPVPSEIAAGNDSNKIFHYDYVAPLAKPNSKERLSLEALHLWKTDPVYKPYYHPVGFILAASSDAPLLHDKEYYEELQKNGLRNYRYISTPEEFREYLPILKGPLPNWRGYVLDGDNGWLHARDSLKSAYEECKRLGVEFVFGDDGEIVELLNENGKLTGIRARSGAIFSAQKYVLSSGANAVTLLNFQRQLEGKCFTLAHFKVTDEEAKAFKSLPVLFNAEKGFFFEADENNEIKICNEYPGFTHTNESGESIPLYRMEIPLESALEIRQYLKETMPQFADRPFTKTRICWCTDSPDMQLILCTHPEYTNLIVASGDSGNSFKIMPIIGKYVSKVVTKGDKGLDPEDKECWKWRPETWDKRGQVRWGGRYRVADLNEIEEWVSVENPTPHKLE
Turning to B1, the “activity and substrate specificity of the enzyme” value is listed as “higher activity”.
